According to patent US20150266960A1 (University of Texas, published 2015):

B2: Wild type IgA Fc domain (other)
chain: VPCPVPSTPPTPSPSTPPTPSPSCCHPRLSLHRPALEDLLLGSEANLTCTLTGLRDASGVTFTWTPSSGKSAVQGPPERDLCGCYSVSSVLPGCAEPWNHGKTFTCTAAYPESKTPLTATLSKSGNTFRPEVHLLPPPSEELALNELVTLTCLARGFSPKDVLVRWLQGSQELPREKYLTWASRQEPSQGTTTFAVTSILRVAAEDWKKGDTFSCMVGHEALPLAFTQKTIDR
notes: Template for the alanine scan; also called wild-type glycosylated IgA; IgA CH2 CH3

Legend:
FcαRI-GST [1] = molecular target: T1, FcαRI-GST (UniProt P24071 22-227, limits assumed); experiment: SPR, antibody amine coupled, dimeric FcαRI-GST flowed, 2:1 bivalent analyte fit
T1 construct: extracellular domain; Made in HEK293F cells from pMaz-IgH-FcαRI-GST (dimeric expression) and purified on glutathione Sepharose; also called soluble dimeric FcαRI-GST; CD89; not shown: GST tag

FcαRI-GST [2] = molecular target: T1, FcαRI-GST; experiment: ELISA: Fc domain coated at 4 µg/mL, FcαRI-GST in 1:4 serial dilution, anti-GST HRP, A450
Experimental: (§1) ELISA plates (Qiagen) were coated with 4 μg/mL of each of the mutant Fc domains in 1×PBS (pH 7.4) overnight at 4° C. The next day the plates were blocked for 2 hours at room temperature with 2% milk in 1×PBS containing 0.05% Tween (PBST) and washed three times in PBST at pH 7.4. To the first well, 66 μL of 20 μg/mL of either FcγRI-GST, FcγRI-GST, FcγRIIa-R131-GST, FcγRIIb-GST, or FcγRIIIa-F158-GST dissolved in PBS with 2% milk (PBSM) was added followed by 1:4 serial dilution. After 1 h of incubation at room temperature, the plates were washed and 50 μL PBSM was added containing 1:5000 goat anti-GST HRP (GE Healthcare) for 1 hour. To develop the plates, the wells were washed 3× with PBST, 50 μL TMB substrate was added per well (Thermo Scientific), 50 μL of 1 M H₂SO₄ was added to neutralize, and the absorbance at 450 nm was recorded.

FcγRI-GST = molecular target: T2, FcγRI-GST (UniProt P12314 16-292, limits assumed); experiment: ELISA: Fc domain coated at 4 µg/mL, FcγRI-GST in 1:4 serial dilution, anti-GST HRP, A450
T2 construct: not shown: GST tag
Experimental: as §1

Wild type IgA Fc domain = molecular target: B2; experiment: ELISA: Fc domain coated at 4 µg/mL, FcγRIIa-R131-GST in 1:4 serial dilution, anti-GST HRP, A450
Experimental: as §1

T1 sequence (P24071 22-227 limits assumed): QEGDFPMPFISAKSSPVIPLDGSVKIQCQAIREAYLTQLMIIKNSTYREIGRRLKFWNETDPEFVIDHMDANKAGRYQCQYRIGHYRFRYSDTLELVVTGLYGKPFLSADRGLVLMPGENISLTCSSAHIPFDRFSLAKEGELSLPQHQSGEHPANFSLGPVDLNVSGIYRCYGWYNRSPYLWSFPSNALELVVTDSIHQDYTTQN
T2 sequence (P12314 16-292 limits assumed): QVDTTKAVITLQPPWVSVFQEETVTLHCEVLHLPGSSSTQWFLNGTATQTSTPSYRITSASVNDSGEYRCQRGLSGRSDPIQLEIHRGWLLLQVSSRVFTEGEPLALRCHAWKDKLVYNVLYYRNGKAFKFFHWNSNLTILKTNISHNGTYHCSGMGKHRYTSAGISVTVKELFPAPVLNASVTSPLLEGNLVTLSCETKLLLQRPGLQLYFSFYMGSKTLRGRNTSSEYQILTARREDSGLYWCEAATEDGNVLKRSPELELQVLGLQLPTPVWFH

Molecule: trastuzumab IgA (antibody)
- Kd (FcαRI-GST [1]): 500 nM

B1: Mutant B (other)
Fc chain (hinge-CH2-CH3): DKTHTCPPCPAPELLGGPSVFLFPPKPKDTLMISRTPEVTCVVVDVSHEDPEVKFNWYVDGVEVHNAKTKPREEQYNSTYRVVSVLTVLHQDWLNGKEYKCKVSNKALPAPIEKTISKAKSGNTFRPEVHLLPPPSEELALNELVTLTCLARGFSPKDVLVRWLQGSQELPREKYLTWASRQEPSQGTTTFAVTSILRVAAEDWKKGDTFSCMVGHEALPLAFTQKTIDR
notes: Purified over Ni-NTA (His tag); also called Mutant B Fc domain; MutB
- binding result (FcαRI-GST [2]): no binding

Molecule: B2
- binding result (FcγRI-GST): no binding

B3: FcγRIIa-R131-GST (receptor, UniProt P12318 34-217, looked up)
chain: QAAAPPKAVLKLEPPWINVLQEDSVTLTCQGARSPESDSIQWFHNGNLIPTHTQPSYRFKANNNDSGEYTCQTGQTSLSDPVHLTVLSEWLVLQTPHLEFQEGETIMLRCHSWKDKPLVKVTFFQNGKSQKFSRLDPTFSIPQANHSHSGDYHCTGNIGYTLFSSKPVTITVQVPSMGSSSPMG
notes: R131 is an allele name counted on the mature protein; not shown: GST tag
- binding result (Wild type IgA Fc domain): no binding
